Laboratory results from article PMC11041675.

Experiments:
Experiment in all cases: EMSA
[1] = target: nsp8 (SARS-CoV-2, UniProt P0DTD1 3943-4140)
[2] = target: nsp7 (SARS-CoV-2, UniProt P0DTD1 3860-3942)
[3] = target: nsp7;nsp8 (SARS-CoV-2;SARS-CoV-2, UniProt P0DTD1;P0DTD1 3860-3942;3943-4140, |)

B1: SLP4 (structured_RNA)
RNA: GGGAUUCUCGUAACUACAUAGCACAAGUAGAUGUAGUUAACUUUAAUCUCACAGCAAUGUGAUUUUAAUAGCUUCUUAGGAGAAU
[1]
  binding result: binds
[2]
  binding result: no binding
[3]
  Kd: 2.4 µM

B2: PKP4 (structured_RNA)
RNA: GGGCUUGUGCAGAAUGAAUUCUCGUAACUACAUAGCACAAGUAGAUGUAGUUAACUUUAAUCUCACAGCAAUGUGAUUUUAAUAGCUUCUUAGGAGAAU
[1]
  binding result: binds
[2]
  binding result: no binding
[3]
  Kd: 2.6 µM

## GGAUUCUCGUAACUACAUAGCACAAGUAGAUGUAGUUACUUAGGAGAAU (structured_RNA) [SL]
[1]
  binding result: binds
[2]
  binding result: no binding
[3]
  Kd: 5.7 µM

B3: rd85 (structured_RNA)
RNA: GGGAAUAUACUAAUAUUGGUUGAGUUGUCCAAGCUCUAAUUGUGUCCUUUAGCUGUACGGAUUAUAAAAGUAAUAGGGAUGUGUU
[3]
  Kd: 3.7 µM

B4: PK (structured_RNA)
RNA: GGGUCUUGUGCAGAAUGAAUUCUCGUAACUACAUAGCACAAGUAGAUGUAGUUA
[1]
  binding result: binds
[2]
  binding result: no binding
[3]
  Kd: 5.3 µM
